Results as given in patent US20250109190A1 (BYOMASS, published 2025).

Assays:
Assay in all cases: BLI Octet; IgG, avid
Activin B = biological target: T1, Activin B (UniProt P09529 293-407)
T1 sequence (looked up): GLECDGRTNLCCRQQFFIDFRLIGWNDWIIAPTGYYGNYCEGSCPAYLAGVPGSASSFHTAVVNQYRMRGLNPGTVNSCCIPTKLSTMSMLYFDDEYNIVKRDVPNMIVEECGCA

BMP9 = biological target: T2, BMP9 (UniProt Q9UK05 320-429)
T2 sequence (looked up): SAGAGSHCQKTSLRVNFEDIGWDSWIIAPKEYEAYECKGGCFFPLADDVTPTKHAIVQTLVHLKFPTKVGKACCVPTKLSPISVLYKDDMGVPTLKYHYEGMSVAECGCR

BMP10 = biological target: T3, BMP10 (UniProt O95393 317-424)
T3 sequence (looked up): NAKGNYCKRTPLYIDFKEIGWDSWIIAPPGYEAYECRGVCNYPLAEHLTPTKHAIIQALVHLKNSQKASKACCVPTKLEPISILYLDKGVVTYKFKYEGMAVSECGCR

GDF15 Fc = biological target: T4, GDF15 Fc (UniProt Q99988 197-308, limits assumed)
T4 construct: species not given; not shown: Fc part of the fusion
T4 sequence (looked up): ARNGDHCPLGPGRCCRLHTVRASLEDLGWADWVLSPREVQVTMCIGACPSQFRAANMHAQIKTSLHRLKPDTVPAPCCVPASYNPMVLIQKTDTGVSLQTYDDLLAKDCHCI

human GDNF = biological target: T5, human GDNF (human, UniProt P39905 78-211, limits assumed)
T5 sequence (looked up): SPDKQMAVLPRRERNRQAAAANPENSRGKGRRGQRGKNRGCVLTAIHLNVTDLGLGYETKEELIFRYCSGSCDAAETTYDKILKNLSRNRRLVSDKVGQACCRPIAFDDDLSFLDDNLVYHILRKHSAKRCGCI

human GDF8 = human GDF8 (human, UniProt O14793 267-375)
human GDF10 = biological target: T6, human GDF10 (human, UniProt P55107 369-478)
T6 sequence (looked up): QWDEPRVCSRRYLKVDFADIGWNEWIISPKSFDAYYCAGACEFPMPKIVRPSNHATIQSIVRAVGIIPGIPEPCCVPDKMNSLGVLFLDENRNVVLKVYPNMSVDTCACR

human GDF11 = human GDF11 (human, UniProt O95390 299-407)

Measured: binding result

human GDF11, sequence (O95390 299-407 limits assumed): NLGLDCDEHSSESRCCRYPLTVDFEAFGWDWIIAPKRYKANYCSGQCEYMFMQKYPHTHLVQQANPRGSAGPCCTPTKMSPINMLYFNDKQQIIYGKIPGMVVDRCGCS

B1: Antibody I (Clone I), IgG (antibody, V domains shown)
VH: QVQLVQSGAEVKKPGSSVKVSCKASGGTFSNYAISWVRQAPGQGLEWMGYIIPFFGTANYAQKFQGRVTITADESTSTAYMELSSLRSEDTAVYYCARGGSGYSTSWGSSLYWGQGTLVTVSS
VL: EIVLTQSPGTLSLSPGERATLSCRASQSVSSSYLAWYQQKPGQAPRLLIYGASYRATGIPDRFSGSGSGTDFTLTISRLEPEDFAVYYCLQSGVFPYTFGGGTKVEIKR
notes: IgG
no binding (tested: 100 nM): all assays above

B2: Antibody K (Clone K), IgG (antibody, V domains shown)
VH: QVQLVQSGAEVKKPGSSVKVSCKASGGTSSSYAISWVRQAPGQGLEWMGYIIPAFGTANYAQKFQGRVTITADESTSTAYMELSSLRSEDTAVYYCARPVRTYPLGKYFYHWGQGTLVTVSS
VL: EIVLTQSPATLSLSPGERATLSCRASQSVSSYLAWYQQKPGQAPRLLIYDASNRATGIPARFSGSGSGTDFTLTISSLEPEDFAVYYCQQDSIFPPYTFGGGTKVEIKR
notes: IgG
no binding (tested: 100 nM): all assays above
